Reference: US20260028391A1
Like-named read-outs stand apart in the source and are kept apart here.

Tests used:
[1] = molecular target: RSV F A L203I (RSV A, strain A2) (UniProt P03420); assay: FACS, % binding to RSV F A variants
[2] = molecular target: RSV F A S433P (RSV A, strain A2) (UniProt P03420); assay: FACS, % binding to RSV F A variants
[3] = molecular target: RSV F A, A2 Ref (RSV A, strain A2) (UniProt P03420); assay: FACS, % binding to RSV F A variants
[4] = molecular target: RSV F A N208Y-N671I (RSV A, strain A2) (UniProt P03420); assay: FACS, % binding to RSV F A variants
[5] = molecular target: RSV F A S443P-K445N (RSV A, strain A2) (UniProt P03420); assay: FACS, % binding to RSV F A variants
[6] = molecular target: RSV F A S433P-G446E (RSV A, strain A2) (UniProt P03420); assay: FACS, % binding to RSV F A variants
[7] = molecular target: RSV F A G446E (RSV A, strain A2) (UniProt P03420); assay: FACS, % binding to RSV F A variants
[8] = molecular target: RSV A2 BPR-344-00 (BEI NR-12149) fusion glycoprotein (F) (RSV A, strain A2) (UniProt P03420); assay: cell-based or functional assay
[9] = molecular target: RSV Ds Red 5 fusion glycoprotein (F) (RSV, strain printed as Ds Red 5); assay: cell-based or functional assay
[10] = molecular target: RSV A 2001/3-12 fusion glycoprotein (F) (RSV A, strain A 2001/3-12); assay: cell-based or functional assay
[11] = molecular target: RSV A2 VR 1540 fusion glycoprotein (F) (RSV A, strain A2 (VR 1540)) (UniProt P03420); assay: cell-based or functional assay
[12] = molecular target: RSV A1998/3-2 fusion glycoprotein (F) (RSV A, strain A1998/3-2); assay: cell-based or functional assay
[13] = molecular target: RSV A 2000/3-4 fusion glycoprotein (F) (RSV A, strain A 2000/3-4); assay: cell-based or functional assay
[14] = molecular target: RSV A1997/12-35 fusion glycoprotein (F) (RSV A, strain A1997/12-35); assay: cell-based or functional assay
[15] = molecular target: RSV A2 (screening GFP strain) fusion glycoprotein (F) (RSV A); assay: cell-based or functional assay
[16] = molecular target: RSV B (screening GFP strain) fusion glycoprotein (F) (RSV B); assay: cell-based or functional assay
RSV F B S443P (RSV B) = assay: FACS, % binding to RSV F B variants
RSV F B N201S (RSV B) = assay: FACS, % binding to RSV F B variants
[17] = molecular target: RSV F B K68N-N208S (RSV B); assay: FACS, % binding to RSV F B variants
RSV F B N208S (RSV B) = assay: FACS, % binding to RSV F B variants
RSV F B N208D (RSV B) = assay: FACS, % binding to RSV F B variants
RSV F B, B Ref (RSV B) = assay: FACS, % binding to RSV F B variants
[18] = molecular target: RSV F B K68N-N201S (RSV B); assay: FACS, % binding to RSV F B variants
[19] = molecular target: biot-RSV-F wt (respiratory syncytial virus (RSV)); assay: BLI (Octet), biotinylated F on SA sensors, mAb 5 µg/ml
RSV-B F (RSV B) [20] = assay: affinity; method not given
RSV-A F (RSV A) [21] = assay: affinity; method not given
[22] = molecular target: RSV A2 BPR-344-00 (BEI NR-12149) fusion glycoprotein (F) (RSV A, strain A2) (UniProt P03420); assay: cell-based or functional assay; remark: listed apart in the source
[23] = molecular target: RSV-long strain fusion glycoprotein (F) (RSV, long strain) (UniProt P12568); assay: cell-based or functional assay
[24] = molecular target: RSV B 9719/09 fusion glycoprotein (F) (RSV B, strain 9719/09); assay: cell-based or functional assay
[25] = molecular target: RSV-B B18537/62 F protein (RSV B, strain B18537/62) (UniProt P13843); assay: cell-based or functional assay
[26] = molecular target: fusion glycoprotein (F) of RSV B GFP (Tables 41 and 42) (respiratory syncytial virus B); assay: cell-based or functional assay
[27] = molecular target: RSV-B B9320 F protein (RSV B, strain B9320); assay: cell-based or functional assay
[28] = molecular target: RSV A fusion glycoprotein (F), virus of the neutralisation assays of Tables 54 and 57 (RSV A); assay: cell-based or functional assay
[29] = molecular target: fusion glycoprotein (F) of MPV A GFP (Tables 41 and 43) (metapneumovirus A); assay: cell-based or functional assay
[30] = molecular target: fusion glycoprotein (F) of RSV A GFP (Tables 41 and 42) (respiratory syncytial virus A); assay: cell-based or functional assay
[31] = molecular target: RSV A Randall fusion glycoprotein (F) (RSV A, strain Randall); assay: cell-based or functional assay
[32] = molecular target: RSV B1 BPR-348-00 (BEI NR-4052) fusion glycoprotein (F) (RSV B, strain B1) (UniProt O36634); assay: cell-based or functional assay
RSV-B F (RSV B) [33] = assay: BLI
RSV-A F (RSV A) [34] = assay: BLI

Q: What does the source list for MEDI8897-rIgG1-YTE (antibody)?
A: % binding [1]: 0.04%; % binding [2]: 35.3%; % binding [3]: 60.2%; % binding [4]: 0.049%; % binding [5]: 34.5%; % binding [6]: 35.8%; % binding [7]: 28.5%; IC50, virus neutralization [8]: 1.01 ng/mL; IC50, virus neutralization [9]: 0.48 ng/mL; IC50, virus neutralization [10]: 0.63 ng/mL; IC50, virus neutralization [11]: 1.14 ng/mL; IC50, virus neutralization [12]: 0.9 ng/mL; IC50, virus neutralization [13]: 0.57 ng/mL; IC50, virus neutralization [14]: 0.76 ng/mL; IC50, virus neutralization [15]: 1.02 ng/mL; IC50, virus neutralization [16]: 1.14 ng/mL; % binding (RSV F B S443P (RSV B)): 38.5%; % binding (RSV F B N201S (RSV B)): 27.3%; % binding [17]: 0.031%; % binding (RSV F B N208S (RSV B)): 0.035%; % binding (RSV F B N208D (RSV B)): 0.026%; % binding (RSV F B, B Ref (RSV B)): 57.3%; % binding [18]: 0.056%; Kd [19]: 0.0397 nM; Kd (RSV-B F (RSV B) [20]): 1.22 nM; Kd (RSV-A F (RSV A) [21]): 0.001 nM; IC50, virus neutralization [22]: 0.2 ng/mL; EC50, virus neutralization (Fab testing) [23]: 0.0069 nM; IC50, virus neutralization [24]: 1.25 ng/mL; EC50, virus neutralization (Fab testing) [25]: 0.011 nM; IC50 (ng/ml), RSV B GFP neutralization [26]: 0.419 ng/mL; EC50, virus neutralization (Fab testing) [27]: 0.0102 nM; IC50, neutralization of RSVA [28]: 7.74 ng/mL; IC50 (ng/ml), MPV A GFP neutralization [29]: > 2000 ng/mL; IC50 (ng/ml), RSV A GFP neutralization [30]: 0.483 ng/mL; IC50, virus neutralization [31]: 2.42 ng/mL; EC50, virus neutralization (Fab testing) [32]: 0.0088 nM; IC50, virus neutralization [32]: 0.4 ng/mL; Kd (RSV-B F (RSV B) [33]): 0.221 nM; Kd (RSV-A F (RSV A) [34]): 0.035 nM
